Measurements from the supplement of paper PMC9112550, “Optimization of the antimicrobial peptide Bac7 by deep mutational scanning” (BMC Biology, 2022).

test system: Escherichia coli TOP10; experiment: shrunken log2 fold change of peptide-encoding DNA abundance (4.5 h post-induction vs induction); higher = less antimicrobial activity (less host growth inhibition); details: time post-induction: 4.5 h; library: site-saturation at positions 5, 18, 19, 20
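Note: peptides expressed intracellularly from a pBAD plasmid library in pooled LB shake-flask culture, induced with 0.3% L-arabinose, DNA abundance read by NGS, three biological replicates, DESeq2 with apeglm shrinkage.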

| Sequence | shrunken log2 fold change |
| --- | --- |
| RRIRNRPPRLPRPRPRPVFFPRP | -0.223 |
| RRIRMRPPRLPRPRPRPVIKPRP | -0.0254 |
| RRIRKRPPRLPRPRPRPNLGPRP | 0.207 |
| RRIRDRPPRLPRPRPRPIVWPRP | -0.0132 |
| RRIRDRPPRLPRPRPRPYFKPRP | -0.381 |
| RRIRRRPPRLPRPRPRPEWFPRP | -0.159 |
| RRIRYRPPRLPRPRPRPQNCPRP | -0.0075 |
| RRIRTRPPRLPRPRPRPYVLPRP | -0.321 |
| RRIRNRPPRLPRPRPRPTVLPRP | -0.091 |
| RRIRQRPPRLPRPRPRPFYCPRP | -0.314 |
| RRIRFRPPRLPRPRPRPFYEPRP | -0.886 |
| RRIRMRPPRLPRPRPRPSPTPRP | 1.15 |
| RRIRGRPPRLPRPRPRPSAPPRP | 0.711 |
| RRIRTRPPRLPRPRPRPEHVPRP | 0.0823 |
| RRIRFRPPRLPRPRPRPPMNPRP | -0.0762 |
| RRIRLRPPRLPRPRPRPNNCPRP | -0.207 |
| RRIRKRPPRLPRPRPRPMLVPRP | -0.0603 |
| RRIRHRPPRLPRPRPRPVPNPRP | -8.36e-05 |
| RRIRARPPRLPRPRPRPMYSPRP | -0.08 |
| RRIRGRPPRLPRPRPRPRCQPRP | 0.835 |
| RRIRNRPPRLPRPRPRPYPCPRP | -0.00822 |
| RRIRCRPPRLPRPRPRPPVIPRP | -0.0627 |

| Sequence | shrunken log2 fold change |
| --- | --- |
| RRIRVRPPRLPRPRPRPMGMPRP | 0.0727 |
| RRIRHRPPRLPRPRPRPQDAPRP | -0.00992 |
| RRIRGRPPRLPRPRPRPNECPRP | 0.421 |
| RRIRGRPPRLPRPRPRPTPAPRP | 1.43 |
| RRIRRRPPRLPRPRPRPTNVPRP | -0.0322 |
| RRIRCRPPRLPRPRPRPTGWPRP | 0.314 |
| RRIRARPPRLPRPRPRPNECPRP | -0.409 |
| RRIRFRPPRLPRPRPRPYHQPRP | -0.963 |
| RRIRTRPPRLPRPRPRPRKAPRP | 0.326 |
| RRIRARPPRLPRPRPRPIANPRP | 0.103 |
| RRIRLRPPRLPRPRPRPAIDPRP | -0.283 |
| RRIRWRPPRLPRPRPRPWDNPRP | -0.00804 |
| RRIRYRPPRLPRPRPRPPQEPRP | 1.9 |
| RRIRARPPRLPRPRPRPDCQPRP | 0.55 |
| RRIRPRPPRLPRPRPRPHEQPRP | 0.0602 |
| RRIRRRPPRLPRPRPRPIDDPRP | -0.128 |
| RRIRCRPPRLPRPRPRPLWLPRP | -0.0572 |
| RRIRGRPPRLPRPRPRPFIDPRP | 0.585 |
| RRIRQRPPRLPRPRPRPLAIPRP | -0.122 |
| RRIRVRPPRLPRPRPRPQNIPRP | -0.504 |
| RRIRLRPPRLPRPRPRPFWYPRP | -0.0126 |
| RRIRERPPRLPRPRPRPAECPRP | -0.0953 |

| Sequence | shrunken log2 fold change |
| --- | --- |
| RRIRVRPPRLPRPRPRPLVYPRP | -0.193 |
| RRIRDRPPRLPRPRPRPPKTPRP | 0.257 |
| RRIRNRPPRLPRPRPRPLCTPRP | -0.194 |
| RRIRPRPPRLPRPRPRPCVQPRP | 0.283 |
| RRIRIRPPRLPRPRPRPRVAPRP | 0.386 |
| RRIRGRPPRLPRPRPRPCWYPRP | 0.0725 |
| RRIRTRPPRLPRPRPRPVRKPRP | 0.00119 |
| RRIRSRPPRLPRPRPRPRVCPRP | 0.366 |
| RRIRQRPPRLPRPRPRPHNDPRP | -0.421 |
| RRIRDRPPRLPRPRPRPWSYPRP | -1.29 |
| RRIRARPPRLPRPRPRPPMPPRP | 0.405 |
| RRIRRRPPRLPRPRPRPKSPPRP | 0.189 |
| RRIRNRPPRLPRPRPRPQLYPRP | -0.206 |
| RRIRNRPPRLPRPRPRPDWDPRP | -0.108 |
| RRIRQRPPRLPRPRPRPENVPRP | -0.0767 |
| RRIRERPPRLPRPRPRPQTLPRP | -0.324 |
| RRIRGRPPRLPRPRPRPQPAPRP | 0.833 |
| RRIRMRPPRLPRPRPRPCCYPRP | -0.427 |
| RRIRVRPPRLPRPRPRPLPDPRP | -0.0431 |
| RRIRQRPPRLPRPRPRPVKEPRP | -0.0231 |
| RRIRVRPPRLPRPRPRPVISPRP | -0.509 |
| RRIRCRPPRLPRPRPRPEYLPRP | -0.258 |

| Sequence | shrunken log2 fold change |
| --- | --- |
| RRIRRRPPRLPRPRPRPIACPRP | 0.0283 |
| RRIRGRPPRLPRPRPRPLACPRP | 0.975 |
| RRIRIRPPRLPRPRPRPRLIPRP | -0.199 |
| RRIRWRPPRLPRPRPRPKYCPRP | -0.245 |
| RRIRSRPPRLPRPRPRPMVSPRP | 0.0287 |
| RRIRPRPPRLPRPRPRPSATPRP | 0.195 |
| RRIRLRPPRLPRPRPRPEFPPRP | -0.0973 |
| RRIRLRPPRLPRPRPRPFGAPRP | -0.0596 |
| RRIRMRPPRLPRPRPRPMHIPRP | 0.0159 |
| RRIRYRPPRLPRPRPRPKNEPRP | -0.372 |
| RRIRHRPPRLPRPRPRPSEAPRP | -0.344 |
| RRIRNRPPRLPRPRPRPNYSPRP | -0.364 |
| RRIRERPPRLPRPRPRPLDYPRP | -0.163 |
| RRIRTRPPRLPRPRPRPCLTPRP | -0.319 |
| RRIRMRPPRLPRPRPRPPWYPRP | 0.117 |
| RRIRHRPPRLPRPRPRPGAPPRP | 0.384 |
| RRIRKRPPRLPRPRPRPQATPRP | 0.0984 |
| RRIRERPPRLPRPRPRPSHEPRP | -0.0595 |
| RRIRDRPPRLPRPRPRPKWSPRP | -0.0182 |
| RRIRWRPPRLPRPRPRPACQPRP | 0.015 |
| RRIRPRPPRLPRPRPRPMHDPRP | -0.0561 |
| RRIRDRPPRLPRPRPRPDYDPRP | -0.0133 |

| Sequence | shrunken log2 fold change |
| --- | --- |
| RRIRIRPPRLPRPRPRPSFIPRP | -1.24 |
| RRIRERPPRLPRPRPRPLLIPRP | -0.437 |
| RRIRPRPPRLPRPRPRPYTGPRP | -0.6 |
| RRIRMRPPRLPRPRPRPYPCPRP | 0.0288 |
| RRIRHRPPRLPRPRPRPQIEPRP | -0.24 |
| RRIRDRPPRLPRPRPRPTICPRP | -0.232 |
| RRIRMRPPRLPRPRPRPAYWPRP | 0.509 |
| RRIRHRPPRLPRPRPRPCAGPRP | -0.195 |
| RRIRMRPPRLPRPRPRPHGMPRP | -0.0062 |
| RRIRQRPPRLPRPRPRPPEPPRP | 0.834 |
| RRIRYRPPRLPRPRPRPCTWPRP | -0.303 |
| RRIRWRPPRLPRPRPRPPTIPRP | -0.0126 |
| RRIRERPPRLPRPRPRPAFSPRP | 0.122 |
| RRIRMRPPRLPRPRPRPTKLPRP | 0.287 |
| RRIRERPPRLPRPRPRPDTNPRP | -0.183 |
| RRIRARPPRLPRPRPRPGHFPRP | 0.0329 |
| RRIRGRPPRLPRPRPRPGDAPRP | 1.09 |
| RRIRQRPPRLPRPRPRPPEKPRP | 0.917 |
| RRIRLRPPRLPRPRPRPPQGPRP | 1.27 |
| RRIRSRPPRLPRPRPRPPCGPRP | 0.182 |
| RRIRGRPPRLPRPRPRPSQKPRP | 0.0248 |
